# Source: PMC8754650, “Structural basis of DNA methylation-dependent site selectivity of the Epstein–Barr virus lytic switch protein ZEBRA/Zta/BZLF1”
# B1: oriLyt ZRE5 (EMSA) (dsDNA)
# DNA 1: ATAGCTTATGTGCAATTTTATC
# DNA 2: ATGATAAAATTGCACATAAGCT
# B2: hemi-me C-2' ZRE2 (EMSA) (dsDNA)
# DNA 1: ATAGCTTATGAGCGATTTTATC
# DNA 2: ATGATAAAATCGCTCATAAGCT
# modifications: 5mC at position 11 of strand 2
# B3: hemi-me C1 ZRE2 (EMSA) (dsDNA)
# DNA 1: ATAGCTTATGAGCGATTTTATC
# DNA 2: ATGATAAAATCGCTCATAAGCT
# modifications: 5mC at position 13 of strand 1
# B4: meZRE2 (EMSA) (dsDNA)
# DNA 1: ATAGCTTATGAGCGATTTTATC
# DNA 2: ATGATAAAATCGCTCATAAGCT
# modifications: 5mC at position 13 of strand 1 and 11 of strand 2
# B5: AP-1 (FP) (dsDNA)
# DNA 1: AGCTTATGAGTCATTTTAT
# DNA 2: AATAAAATGACTCATAAGC
# Experiments:
# Strep/FLAG:ZEBRA [1] = biological target: T1, Strep/FLAG:ZEBRA (Epstein-Barr virus, UniProt P03206 149-245); test: EMSA; intermediate, similar to hemi-methylated sites; FP: PBS (137 mM NaCl, 2.7 mM KCl, 10 mM Na2HPO4, 1.8 mM KH2PO4) pH 7.4, 20 C, 10 nM duplex, 28 ng/ul herring testes DNA competitor; EMSA per cited ref with competitor DNA; settings: protein: recombinant; tags: StrepII/FLAG; chain copies: 2; 5' overhang 2 nt each end
# T1 sequence (P03206 149-245): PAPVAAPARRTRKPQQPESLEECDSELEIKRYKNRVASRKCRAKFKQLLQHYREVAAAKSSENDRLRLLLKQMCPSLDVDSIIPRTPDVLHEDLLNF
# Strep/FLAG:ZEBRA [2] = biological target: T1, Strep/FLAG:ZEBRA; test: EMSA; between ZRE2 and meZRE2; FP: PBS (137 mM NaCl, 2.7 mM KCl, 10 mM Na2HPO4, 1.8 mM KH2PO4) pH 7.4, 20 C, 10 nM duplex, 28 ng/ul herring testes DNA competitor; EMSA per cited ref with competitor DNA; settings: protein: recombinant; tags: StrepII/FLAG; chain copies: 2; 5' overhang 2 nt each end
# Strep/FLAG:ZEBRA [3] = biological target: T1, Strep/FLAG:ZEBRA; test: EMSA; between ZRE2 and meZRE2; slightly stronger than hemi C-2'; FP: PBS (137 mM NaCl, 2.7 mM KCl, 10 mM Na2HPO4, 1.8 mM KH2PO4) pH 7.4, 20 C, 10 nM duplex, 28 ng/ul herring testes DNA competitor; EMSA per cited ref with competitor DNA; settings: protein: recombinant; tags: StrepII/FLAG; chain copies: 2; 5' overhang 2 nt each end
# Strep/FLAG:ZEBRA [4] = biological target: T1, Strep/FLAG:ZEBRA; test: EMSA; tightest; FP: PBS (137 mM NaCl, 2.7 mM KCl, 10 mM Na2HPO4, 1.8 mM KH2PO4) pH 7.4, 20 C, 10 nM duplex, 28 ng/ul herring testes DNA competitor; EMSA per cited ref with competitor DNA; settings: protein: recombinant; tags: StrepII/FLAG; chain copies: 2; 5' overhang 2 nt each end
# ZEBRA DBD WT = ZEBRA DBD WT (Epstein-Barr virus, UniProt P03206 175-236); test: FP; apparent, Hill n=2; FP: PBS (137 mM NaCl, 2.7 mM KCl, 10 mM Na2HPO4, 1.8 mM KH2PO4) pH 7.4, 20 C, 10 nM duplex, 28 ng/ul herring testes DNA competitor; EMSA per cited ref with competitor DNA; settings: protein: recombinant; tags: MBP; chain copies: 2; label: rhodamine 5' of strand 1; 5' overhang 1 nt each end
# Chain of ZEBRA DBD WT (P03206 175-236): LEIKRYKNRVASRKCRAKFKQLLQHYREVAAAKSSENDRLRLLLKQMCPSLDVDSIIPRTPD
# GCN4 DBD WT = GCN4 DBD WT (Saccharomyces cerevisiae, UniProt P03069 228-281); test: FP; apparent; FP: PBS (137 mM NaCl, 2.7 mM KCl, 10 mM Na2HPO4, 1.8 mM KH2PO4) pH 7.4, 20 C, 10 nM duplex, 28 ng/ul herring testes DNA competitor; EMSA per cited ref with competitor DNA; settings: protein: recombinant; tags: MBP; chain copies: 2; label: rhodamine 5' of strand 1; 5' overhang 1 nt each end
# Chain of GCN4 DBD WT (P03069 228-281): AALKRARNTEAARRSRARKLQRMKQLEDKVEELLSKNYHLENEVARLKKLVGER
binder,measurement,setting,value
B1,binding result,Strep/FLAG:ZEBRA [1],binds
B2,binding result,Strep/FLAG:ZEBRA [2],binds
B3,binding result,Strep/FLAG:ZEBRA [3],binds
B4,binding result,Strep/FLAG:ZEBRA [4],binds
B5,Kd,ZEBRA DBD WT,271 ± 25 nM
same,Kd,GCN4 DBD WT,77.9 ± 8.8 nM
